In paper PMC12431652:

Target: Tripartite Motif Protein 28 (TRIM28), endogenous in HEK293T cells (UniProt Q13263)
Test: co-immunoprecipitation (anti-FLAG IP, western blot band quantification)
Settings: for percent of parent (rel. (PIV2-V = 100)): HEK293T cells transfected for 24 hours, n = 3, parent: 100, read off a plot

Chain of UniProt Q13263 (Q13263 whole entry): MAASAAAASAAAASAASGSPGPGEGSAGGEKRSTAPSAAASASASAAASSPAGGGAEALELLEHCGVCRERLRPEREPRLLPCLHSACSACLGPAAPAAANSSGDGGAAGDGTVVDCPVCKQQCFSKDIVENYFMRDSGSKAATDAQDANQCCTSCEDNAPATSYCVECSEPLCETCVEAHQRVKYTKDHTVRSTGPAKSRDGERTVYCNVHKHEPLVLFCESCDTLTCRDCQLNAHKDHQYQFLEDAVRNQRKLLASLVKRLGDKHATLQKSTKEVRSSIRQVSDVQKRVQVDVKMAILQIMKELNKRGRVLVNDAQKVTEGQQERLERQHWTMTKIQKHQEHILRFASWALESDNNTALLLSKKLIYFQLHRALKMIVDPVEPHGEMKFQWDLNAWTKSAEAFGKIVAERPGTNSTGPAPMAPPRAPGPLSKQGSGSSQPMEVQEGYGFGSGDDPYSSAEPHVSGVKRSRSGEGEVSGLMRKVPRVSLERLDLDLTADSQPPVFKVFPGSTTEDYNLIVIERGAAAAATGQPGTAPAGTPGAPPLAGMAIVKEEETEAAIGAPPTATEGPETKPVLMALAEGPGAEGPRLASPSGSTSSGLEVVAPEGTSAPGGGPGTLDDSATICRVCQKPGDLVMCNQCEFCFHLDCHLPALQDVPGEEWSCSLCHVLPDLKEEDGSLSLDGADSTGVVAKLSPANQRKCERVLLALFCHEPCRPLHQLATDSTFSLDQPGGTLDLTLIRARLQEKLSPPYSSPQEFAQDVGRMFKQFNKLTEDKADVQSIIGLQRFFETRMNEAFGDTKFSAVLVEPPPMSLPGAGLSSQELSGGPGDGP

Substance	percent of parent (rel. (PIV2-V = 100))	percent of parent (rel. (PIV5-V = 100)) (n = 3, parent: 100, read off a plot)
FLAG-tagged full-length PIV2-V (pCMV7.1_3xFlag) (from UniProt P19847) Q186E	130	
FLAG-tagged full-length PIV2-V (pCMV7.1_3xFlag) (from UniProt P19847) W178Y	50	
FLAG-tagged full-length PIV2-V (pCMV7.1_3xFlag) (from UniProt P19847) F190T	130	
FLAG-tagged full-length PIV5-V (pCMV7.1_3xFlag) (from UniProt P11207) Y175W		310
FLAG-tagged full-length PIV2-V (pCMV7.1_3xFlag) (from UniProt P19847) A181G	110	
